Data published in patent US20220242963A1, “B-CELL ACTIVATING CD73 ANTIBODIES” (CORVUS PHARMACEUTICALS, INC., priority 2018, published 2022).

Columns and labels:
[1] = test system: T cell clones; assay: T cell receptor Vb sequencing of peripheral blood (T cell clone frequency); type: in vivo, human
Method: FIGS. 11A-11C show clonal abundance plots of T cell clones for three patients treated with CP1-006. Sequencing of the Vb region of the T cell receptor was performed to identify the frequency of unique T cell clones in peripheral blood samples collected pre-treatment and on-treatment at 6 weeks of 12 mg/kg CPI-006+ciforadenant (FIG. 11A), 12 mg/kg CPI-006 (FIG. 11B), or 18 mg/kg CPI-006 (FIG. 11C). Expansion of new T cell clones was observed after 6 weeks in 3 of 8 evaluated patients treated with CPI-006.
(§1) Immunomodulatory activity of CPI-006 was evaluated in patients administered CPI-006. […] Further, T cell activation was evaluated upon treatment with various dosages of the monotherapy CPI-006 or a combination therapy of CPI-006 and ciforadenant. Once a T cell clone is activated, the clone can expand and produce clonal copies of the original clone. […] The results further affirm CPI-006 is an immunomodulator of CD73 positive cells.

[2] = target: T1, CD73 (Homo sapiens, UniProt P21589); assay: CD73 enzymatic activity in MDA-MB-231 xenograft model; type: in vivo; conditions: MDA-MB-231 human TNBC xenograft model; FIG. 1F
T1 construct: endogenous in cells; host or cells: Whole blood of cancer patients (CD73+ CD8 T cells)
T1 sequence (P21589 27-549): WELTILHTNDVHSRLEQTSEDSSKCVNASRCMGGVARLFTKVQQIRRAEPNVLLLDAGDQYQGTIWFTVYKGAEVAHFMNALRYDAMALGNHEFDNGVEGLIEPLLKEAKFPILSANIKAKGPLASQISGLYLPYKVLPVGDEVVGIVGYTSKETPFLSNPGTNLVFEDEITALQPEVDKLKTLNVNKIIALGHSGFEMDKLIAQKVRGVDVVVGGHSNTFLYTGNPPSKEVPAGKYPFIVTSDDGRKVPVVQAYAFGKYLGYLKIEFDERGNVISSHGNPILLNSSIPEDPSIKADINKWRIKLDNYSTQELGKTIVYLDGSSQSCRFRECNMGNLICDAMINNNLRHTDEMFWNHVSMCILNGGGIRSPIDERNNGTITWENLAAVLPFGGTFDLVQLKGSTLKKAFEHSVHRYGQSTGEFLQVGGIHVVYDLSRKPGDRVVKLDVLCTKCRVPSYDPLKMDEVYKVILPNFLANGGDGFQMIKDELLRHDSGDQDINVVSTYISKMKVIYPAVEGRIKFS
Text: FIG. 1A provides a schematic of CD73 structure. […] Each symbol represents an independent donor.

[3] = target: T1, CD73; assay: Occupancy and inhibition of CD73 in a tumor biopsy of a treated colorectal cancer patient; type: in vivo; conditions: 12 mg/kg, retroperitoneal lesion at trough pre-dose 3, FIG. 5
Method: The tumor biopsy was of a retroperitoneal lesion obtained at trough pre-dose 3.
A tumor biopsy taken from a colorectal cancer patient treated with CPI-006 was evaluated for inhibition of CD73 enzymatic activity.

[4] = Phase 1/1B clinical trial: serum levels of free CPI-006 by ELISA; type: in vivo, human
Method: FIGS. 3A-3D show the pharmacokinetics/pharmacodynamics and CD73 receptor occupancy of CPI-006 after a first infusion in human patients. […] The dotted line marks one-hundred percent occupancy CD73 receptor occupancy.
With reference to Table 1, serum samples were collected from patients treated with CPI-006 alone (i.e., monotherapy) and levels of free CPI-006 were measured by ELISA, as shown in FIG. 3A. Whole blood samples from patients treated with CPI-006 alone were fixed and receptor occupancy was measured by flow cytometry gating on CD73+CD8 T cells, as shown in FIG. 3B. As illustrated in FIGS. 3A-3D, receptor exposure to CPI-006 increases and clearance decreases with increasing doses of CPI-006, and CIP-006 is detectable for 21 days after administration of a single dose of 6 mg/kg or higher. […] Other results from the study are described below and in Table 4. BLQ is below limit of quantification. TBD is to be determined.

[5] = Phase 1/1B clinical trial: adverse events, tolerability; type: in vivo, human
Text: The primary objectives of the study were to show safety and tolerability of the active agents, and the second objectives of the study were to identify PK/PD profiles, drug efficacy, and biomarkers. […] The adenosine gene signature was not used to select patients. The dose expansion includes treatment of non-small cell lung cancer, renal cell carcinoma, non-Hodgkin's lymphoma, and other types of cancers (e.g., bladder, prostate, pancreatic, colorectal, squamous cell cancer of the head and neck). CPI-006 was given as a one hour infusion every three weeks, and for the combination treatments 100 mg po BID of ciforadenant was administered. Biomarker assessment was conducted for the effects of CD73 expression in tumors, peripheral blood lymphocyte subsets, antibody occupancy of target, and serum cytokines.
The baseline demographics of the patients are shown in Table 2 below, and the adverse events are shown in Table 3 (where TEAE refers to treatment-related adverse events based on any grade 3 or 4 events, or 2 or more of all grades).

[6] = test system: inflammatory cytokines; assay: Phase 1/1B clinical trial: serum cytokine levels; type: in vivo, human; conditions: patients following treatment
Method: as §1

[7] = with increasing doses of CPI-006, first infusion, FIGS. 3A-3D
[8] = cancer patients, monotherapy n = 12, combination n = 8

occupancy of CD73 in tumor biopsy [3]: binds and saturates CD73
B1: CPI-006: humanized CD73 antibody, wherein the light chain is SEQ ID NO:8 and the heavy chain is SEQ ID NO:7; IgG1 Fcγ receptor-deficient (antibody, V domains shown)
VH: QVQLVQSGAEVEKPGASVKVSCKASGYTFTSYWITWVRQAPGQGLEWMGDIYPGSGNTNYNEKFKTRVTITADKSTSTAYMELSSLRSEDTAVYYCAKEGGLTTEDYALDYWGQGTLVTV
VL: EIVLTQSPATLSLSPGERATLSCRASKNVSTSGYSYMHWYQQKPGQAPRLLIYLASNLESGIPPRFSGSGYGTDFTLTINNIESEDAAYYFCQHSRELPFTFGQGTKVEIK
generation of new T cell clones ([1]; 12 or 18 mg/kg CPI-006, or 12 mg/kg CPI-006 + ciforadenant, 6 weeks, FIGS. 11A-11C): new T cell clones were generated
evaluated patients with expansion of new T cell clones ([1]; after 6 weeks of treatment, peripheral blood): 3 of 8
CD73 enzymatic activity in tumor xenograft [2]: blocks CD73 enzymatic activity
CD73 enzymatic activity in tumor biopsy [3]: inhibit CD73 enzymatic activity
Serum CPI-006 at C1D8 ([4]; 1 mg/kg, patients 1-3, BLQ is below limit of quantification): BLQ
Serum CPI-006 at C1D8 ([4]; 6 mg/kg, patient 7 (Colorectal)): 23.60 µg/mL
PK dose dependence ([4]; clinical data, 1, 3, and 6 mg/kg): dose proportional
time detectable in serum after administration ([4]; single dose of 6 mg/kg or higher): 21 days
clearance [4, 7]: decreases
exposure to CPI-006 [4, 7]: increases
Adverse Events Number of Patients: Anemia, All Grades [5, 8]: 1
Adverse Events Number of Patients: Anemia, Grade 3 or 4 [5, 8]: 1
Adverse Events Number of Patients: Chills, All Grades [5, 8]: 4
Adverse Events Number of Patients: Chills, Grade 3 or 4 [5, 8]: 0
Adverse Events Number of Patients: Diarrhea, All Grades [5, 8]: 1
Adverse Events Number of Patients: Diarrhea, Grade 3 or 4 [5, 8]: 0
Adverse Events Number of Patients: Fatigue, All Grades [5, 8]: 2
Adverse Events Number of Patients: Fatigue, Grade 3 or 4 [5, 8]: 0
Adverse Events Number of Patients: Headache, All Grades [5, 8]: 2
Adverse Events Number of Patients: Headache, Grade 3 or 4 [5, 8]: 0
Adverse Events Number of Patients: Infusion-related reaction, All Grades [5, 8]: 2
Adverse Events Number of Patients: Infusion-related reaction, Grade 3 or 4 [5, 8]: 0
Adverse Events Number of Patients: Nausea, All Grades [5, 8]: 3
Adverse Events Number of Patients: Nausea, Grade 3 or 4 [5, 8]: 0
Adverse Events Number of Patients: Pruritus, All Grades [5, 8]: 2
Adverse Events Number of Patients: Pruritus, Grade 3 or 4 [5, 8]: 0
Adverse Events Number of Patients: Subjects with any TEAE, All Grades [5, 8]: 8
Adverse Events Number of Patients: Subjects with any TEAE, Grade 3 or 4 [5, 8]: 1
dose-limiting toxicity ([5]; doses of 1, 3, and 6 mg/kg): no dose-limiting toxicity
tolerability ([5]; doses of 1, 3, and 6 mg/kg): well tolerated
grade 3/4 adverse events ([5]; patients of Table 4, CPI-006 monotherapy 1, 3, 6 mg/kg): No grade 3/4 adverse events were reported
cytokines including TNF-α, TNF-β, MIP-1α, MIP-1β, IL-6, IL-10, IL-8, IP-10, MCP-1, MCP-2, IL-1Ra, GRO-α, MIP-3α, TNF-RII, IL-7, MMP-9 ([6]; FIG. 8A): rapid induction
levels of CRP and SAA ([6]; FIG. 8B): subsequent increase
